# Source: publication PMC4428071, “Structural basis for epitope masking and strain specificity of a conserved epitope in an intrinsically disordered malaria vaccine candidate” (Scientific Reports, 2015)
# Tests used:
# [1] = target: mouse monoclonal antibody 6D8 (mouse); test: SPR
# 6D8 scFv (mouse) = test: ITC; Microcal ITC-200; MSP2 or peptide titrated into 6D8 scFv or 6D8 IgG
# Sequence of 6D8 scFv (mouse) (heavy, as listed by the source, chain 1 of 2): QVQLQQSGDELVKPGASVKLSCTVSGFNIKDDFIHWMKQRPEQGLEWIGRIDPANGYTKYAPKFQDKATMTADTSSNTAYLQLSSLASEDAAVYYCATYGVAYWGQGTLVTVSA
# Sequence of 6D8 scFv (mouse) (light, as listed by the source, chain 2 of 2): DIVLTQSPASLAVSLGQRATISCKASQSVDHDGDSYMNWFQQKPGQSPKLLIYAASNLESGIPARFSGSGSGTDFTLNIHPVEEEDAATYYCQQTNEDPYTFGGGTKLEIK
# Sequence of mouse monoclonal antibody 6D8 (mouse) (heavy, as listed by the source, chain 1 of 2): as the sequence (heavy, as listed by the source, chain 1 of 2) above
# Sequence of mouse monoclonal antibody 6D8 (mouse) (light, as listed by the source, chain 2 of 2): as the sequence (light, as listed by the source, chain 2 of 2) above
binder,measurement,setting,value
Ac-AYNMSIRR-NH2 [MSP2_(15-22)],Kd,[1],87 nM
Ac-AYNMSIRRS-NH2 [MSP2_(15-23)],Kd,[1],34 nM
Ac-NAYNMSIRR-NH2 [MSP2_(14-22)],Kd,6D8 scFv (mouse),< 5 nM
same,Kd,[1],6 nM
Ac-FINNAYNMSIRRS-NH2 [MSP2_(11-23)],Kd,[1],6 nM
Ac-NNAYNMSIRR-NH2 [MSP2_(13-22)],Kd,[1],14 nM
Ac-NAYNMSIRRS-NH2 [MSP2_(14-23)],Kd,[1],16 nM
